In PMC3078985:

Target: CLS (C-terminal fragment of human L-selectin with its entire transmembrane and cytoplasmic domains) (human)
Experiment: AUC

Substance: CLS (C-terminal fragment of human L-selectin with its entire transmembrane and cytoplasmic domains) (domain or fragment)
- pKd (molar fraction units): 1.49
